Target: the molecule itself
Experiment: crystal structure

B1: Rap1GAP Q204A (75–415) (domain or fragment)
chain: not shown
- stoichiometry N: 2

From publication PMC2265111 (The EMBO Journal, 2008)
